This is an account of results in patent US20220025056A1 (INNATE PHARMA, published 2022).

Assay [1] addresses T1, human ILT6 (LILRA3) on CHO cells (human, UniProt Q8N6C8 24-434).
T1 construct: also called CHO ILT6 cell line; human ILT-6 polypeptide
The experiment in a line: flow cytometry, CHO transfectants. On the technique in general: Flow cytometry measures light scatter and fluorescence of single cells or particles in a stream.

Assay [2] deals with T2, ILT2 mutant 2 (human, UniProt Q8NHL6 24-650).
T2 construct: transfected in HEK293T cells; also called M2
The experiment in a line: flow cytometry, ILT2 point mutants.

Changes are numbered by the printed parent chain.

T2 sequence (Q8NHL6 other isoform, or with tags, fused parts or gaps mutant): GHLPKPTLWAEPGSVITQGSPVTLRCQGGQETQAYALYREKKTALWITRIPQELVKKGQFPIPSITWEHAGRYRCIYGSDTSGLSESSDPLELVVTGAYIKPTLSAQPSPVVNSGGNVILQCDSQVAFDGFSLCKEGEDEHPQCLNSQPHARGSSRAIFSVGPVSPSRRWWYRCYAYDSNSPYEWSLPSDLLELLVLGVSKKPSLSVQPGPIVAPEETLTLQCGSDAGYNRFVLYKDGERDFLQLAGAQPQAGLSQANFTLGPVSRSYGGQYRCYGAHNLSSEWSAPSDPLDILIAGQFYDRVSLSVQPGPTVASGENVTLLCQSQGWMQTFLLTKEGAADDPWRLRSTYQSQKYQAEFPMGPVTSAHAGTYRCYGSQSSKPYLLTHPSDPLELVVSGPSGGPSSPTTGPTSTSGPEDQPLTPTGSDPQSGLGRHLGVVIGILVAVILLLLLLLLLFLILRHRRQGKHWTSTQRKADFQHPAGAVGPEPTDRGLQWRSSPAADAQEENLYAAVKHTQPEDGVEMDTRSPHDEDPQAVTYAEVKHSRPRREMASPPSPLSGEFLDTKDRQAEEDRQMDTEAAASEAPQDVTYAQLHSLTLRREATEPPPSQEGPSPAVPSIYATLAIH
T1 sequence (Q8N6C8 other isoform, or with tags, fused parts or gaps): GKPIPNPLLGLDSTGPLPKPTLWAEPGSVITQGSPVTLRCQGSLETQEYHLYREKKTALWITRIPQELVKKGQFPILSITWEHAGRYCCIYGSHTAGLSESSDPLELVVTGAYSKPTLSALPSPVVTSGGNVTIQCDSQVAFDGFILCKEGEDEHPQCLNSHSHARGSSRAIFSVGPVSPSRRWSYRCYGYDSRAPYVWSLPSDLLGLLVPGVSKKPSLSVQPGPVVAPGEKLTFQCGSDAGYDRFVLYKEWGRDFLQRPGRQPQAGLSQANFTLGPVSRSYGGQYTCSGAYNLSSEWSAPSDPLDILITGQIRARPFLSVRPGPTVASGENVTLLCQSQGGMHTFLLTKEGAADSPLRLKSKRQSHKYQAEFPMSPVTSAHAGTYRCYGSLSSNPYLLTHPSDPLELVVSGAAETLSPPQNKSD

B1: 2A8A (antibody, human IgG1, V domains shown)
VH: QVQLQQSGPELVKPGASVKISCKASGYSFTNFYIHWVRQRPGQGLDWIGWIFPGSGETKFNEKFKVKATLTADTSSSTAYMQLNSLTSEDSAVYFCARSWNYDARWGYWGQGTSVTVSS
VL: QIVLTQSPASLAVSLGQRATISCRASESIDSYGISFLHWYQQKPGQPPKLLIYRASNLESGIPARFSGSGSRPDFTLTINPVEADDVATYYCQQSNEDPFTFGSGTKLEIK
As for B1, the binding result in assay [1] and in assay [2] was “no binding” each time.

B2: 3E5 (antibody, human IgG1, V domains shown)
VH: DVQLQESGPELVKPGASVKISCKSSGYSFTNFYIHWVKQRPGQGLDWIGWIFPGTGETNFNEKFKVKAALTADTSSSTVYMQLSTLTSEDSAVYFCARSWNYDARWGYWGQGTSITVSS
VL: B1 VL with Q1E, I2N, Y32F, L37M, R72G, T76S, N80D, D98A
Consider B2, for which the binding result in assay [1] and in assay [2] was “no binding” throughout.

B3: 2D8 (antibody, human IgG1, V domains shown)
VH: B2 VH with D1E, E6Q, T55S, S77N, V79A, T85S, S114T, I115V
VL: B1 VL with Q1D, I2A, L4M, S7T, I29V, L37M, N57I, T76S
B3: the binding result in assay [1] and in assay [2] was “no binding” each time.

B4: 2E2C (antibody, human IgG1, V domains shown)
VH: EFQLQQSGPELVKPGASVKISCKASGYSFTNYYMQWVKQRPGQGLEWIGWIFPGSGESNYNEKFKGKATLSADTSSTTAYMQLSSLTSEDSAVYFCARTWNYDARWGYWGQGTTLTVSS
VL: B1 VL with Q1D, L4M, R24I, A25P, L37M, P73T
As to B4, the binding result in assay [1] and in assay [2] was “no binding” in each case.

B5: 4C11B (antibody, human IgG1, V domains shown)
VH: QVQLKESGPELVKPGASVKISCKASGYSFTNYYIHWVKQRPGQGLEWIGWIFPGSGETNYSEKFKGEAILTADTSSNTAYMQLSSLTSEDSAVYFCARSWNYDARWGYWGQGTTLTVSS
VL: B1 VL with T5S, A9V, L15P, L37M, Q41K, P73T
B5: the binding result in assay [1] and in assay [2] was “no binding” each time.

B6: 2E11 (antibody, human IgG1, V domains shown)
VH: B5 VH with A24T, E57D, S61N, E67K, I69T, Y80S, Q82H, S99T
VL: B1 VL with Q1D, L4M, A25V, L37M, P44S, L50V, N57T, P73T
For the molecule B6, the binding result in assay [1] and in assay [2] was “no binding” throughout.

B7: 4H3 (antibody, human IgG1, V domains shown)
VH: B5 VH with A24T, S28I, E57D, S61N, E67K, I69T, N77S, Y80S, S99T, L115V
VL: B1 VL with Q1D, V3L, A25V, L37M, P44S, L50V, N57T, P73T
For the molecule B7, the binding result in assay [1] and in assay [2] was “no binding” each time.

B8: 6C6 (antibody, human IgG1, V domains shown)
VH: B1 VH with Q1E, R38K, K59N, F60Y, K63R, V66G, A72S, N84S, S114T, V115L
VL: B1 VL with S7T, L37M
As for B8, the binding result in assay [1] and in assay [2] was “no binding” throughout.

B9: 2H12 (antibody, human IgG1, V domains shown)
VH: EVKLQQSGPDLVKPGASVKISCKASGYSFTNFYIHWVKQRPGQGLEWIGWIFPGNGETNYSEKFKGKATLTADTSSSTAYMQFNSLTYEDSAVYFCARTWNYDARWGYWGQGTTLTVSS
VL: DILLTQSPASLAVSLGQRATISCRASDGIDSYGISFMHWYQQKPGQPPTLLIYRASTLESGIPARFSGSGSRTDFTLTINPVEADDVATYYCQQTNEAPFTFGSGTKLELK
For B9, the binding result in assay [1] and in assay [2] was “no binding” throughout.

B10: 1A10D (antibody, human IgG1, V domains shown)
VH: B5 VH with E6Q, Y60F, S61N, E67K, I69T, N77S, L83F, S99T, L115V
VL: B1 VL with Q1E, L37M, P73T
On to B10, for which the binding result in assay [1] and in assay [2] was “no binding” each time.

B11: 4E3B (antibody, human IgG1, V domains shown)
VH: B4 VH with F2V, Q3H, M34I, S58T, K63N, K65R, G66A, L115V
VL: B1 VL with Q1D, V3L, A25P, S28N, L37M, Y40C, A64V, P73T
In the case of B11, the binding result in assay [1] and in assay [2] was “no binding” throughout.

B12: 2A9 (antibody, human IgG1, V domains shown)
VH: B4 VH with F2V, Q3K, M34I, Q35H, S58T, G66V
VL: B1 VL with Q1D, I2V, L4V, S7T, L37M, P73T
On to B12, for which the binding result in assay [1] and in assay [2] was “no binding” in each case.

B13: 2E2B (antibody, human IgG1, V domains shown)
VH: B4 VH with E1D, F2V, Q5V, Q6E, S55G, L115V
VL: B1 VL with Q1D, R24I, A25P, L37M, P73T
Take B13: the binding result in assay [1] and in assay [2] was “no binding” each time.

B14: 3E9B (antibody, human IgG1, V domains shown)
VH: B4 VH with F2V, Q6E, A24T, M34I, Q35H, S58T, L115V
VL: B1 VL with Q1E, V3L, S28T, L37M, P73T
In the case of B14, the binding result in assay [1] and in assay [2] was “no binding” in each case.

B15: 3E7B (antibody, human IgG1, V domains shown)
VH: B5 VH with E6Q, Y60F, S61N, E67K, I69T, N77S, L83F, S99T, L115V
VL: B9 VL with D1E, L3Q, L4M, D27E, T57N, E59V, A98D, L110I
In the case of B15, the binding result in assay [1] and in assay [2] was “no binding” in each case.

B16: 3E7A (antibody, human IgG1, V domains shown)
VH: B5 VH with E6Q, Y60F, S61N, E67K, I69T, N77S, L83F, S99T, L115V
VL: B9 VL with L4M, D27E, T57N, A98D, L110I
For B16, the binding result in assay [1] and in assay [2] was “no binding” throughout.

B17: 2C8 (antibody, human IgG1, V domains shown)
VH: B4 VH with F2V, Q5K, M34I, S55N, S58T, S71T, T77S, T114S, L115V
VL: B1 VL with Q1D, V3L, A12T, S26N, L37M, E59D, P73T
B17: the binding result in assay [1] and in assay [2] was “no binding” throughout.

B18: 5D9 (antibody, human IgG1, V domains shown)
VH: B5 VH with P53L, S61N, N77T
VL: B1 VL with Q1E, L37I, P73T, D85E
Consider B18, for which the binding result in assay [1] and in assay [2] was “no binding” throughout.
